Results on two molecules are retold here after article PMC4712668 (RNA, 2016).

Series [1] deals with the molecule itself. The experiment in a line: single-molecule immunoprecipitation with subunit counting by photobleaching.
Series [2] addresses T1, CLIP-6Myc-FLAG-TEV-Myc-Drosha (human, UniProt Q9NRR4 1-1374, CLIP-surface 547 or CLIP-surface 488 fluorophore on the CLIP tag).
T1 sequence: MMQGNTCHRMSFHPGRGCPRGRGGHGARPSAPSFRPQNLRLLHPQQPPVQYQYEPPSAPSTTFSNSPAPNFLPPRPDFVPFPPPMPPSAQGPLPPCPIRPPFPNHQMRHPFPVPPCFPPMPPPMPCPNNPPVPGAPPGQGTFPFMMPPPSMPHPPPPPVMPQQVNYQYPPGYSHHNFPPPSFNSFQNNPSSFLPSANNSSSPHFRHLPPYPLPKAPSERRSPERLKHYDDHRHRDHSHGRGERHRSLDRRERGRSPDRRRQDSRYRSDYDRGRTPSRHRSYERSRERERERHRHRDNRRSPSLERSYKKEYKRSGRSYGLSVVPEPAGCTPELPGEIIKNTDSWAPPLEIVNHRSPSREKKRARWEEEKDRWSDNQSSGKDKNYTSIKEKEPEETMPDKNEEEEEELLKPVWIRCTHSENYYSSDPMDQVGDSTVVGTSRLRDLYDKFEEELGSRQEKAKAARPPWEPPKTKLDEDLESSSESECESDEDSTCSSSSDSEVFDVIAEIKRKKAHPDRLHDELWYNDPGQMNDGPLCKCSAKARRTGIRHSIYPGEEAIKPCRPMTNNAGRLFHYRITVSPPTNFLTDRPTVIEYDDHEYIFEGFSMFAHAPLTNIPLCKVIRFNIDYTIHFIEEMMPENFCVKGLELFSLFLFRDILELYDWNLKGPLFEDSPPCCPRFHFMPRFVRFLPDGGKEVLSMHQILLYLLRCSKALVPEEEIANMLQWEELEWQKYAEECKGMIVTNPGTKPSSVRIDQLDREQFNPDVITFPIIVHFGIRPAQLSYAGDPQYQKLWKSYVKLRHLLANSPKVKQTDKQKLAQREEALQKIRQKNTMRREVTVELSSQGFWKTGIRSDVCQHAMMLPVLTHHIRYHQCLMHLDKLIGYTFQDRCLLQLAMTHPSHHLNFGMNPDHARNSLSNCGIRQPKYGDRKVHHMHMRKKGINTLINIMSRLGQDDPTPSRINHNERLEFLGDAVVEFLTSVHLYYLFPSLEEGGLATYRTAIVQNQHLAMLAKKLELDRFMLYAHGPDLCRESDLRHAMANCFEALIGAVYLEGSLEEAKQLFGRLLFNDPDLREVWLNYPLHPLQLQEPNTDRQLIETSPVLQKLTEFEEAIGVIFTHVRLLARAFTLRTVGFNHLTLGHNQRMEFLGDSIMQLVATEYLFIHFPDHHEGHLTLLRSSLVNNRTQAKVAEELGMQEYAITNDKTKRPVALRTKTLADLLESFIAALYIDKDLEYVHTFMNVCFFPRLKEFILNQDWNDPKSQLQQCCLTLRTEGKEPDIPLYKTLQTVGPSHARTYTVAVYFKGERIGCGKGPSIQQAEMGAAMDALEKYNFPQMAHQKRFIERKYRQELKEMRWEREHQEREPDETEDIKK
The series is described as above.

Series [3] concerns the molecule itself. The experiment in a line: SEC + other: glycerol gradient centrifugation.

B1: SNAP-DGCR8 (natural protein)
chain: METDESPSPLPCGPAGEAVMESRARPFQALPREQSPPPPLQTSSGAEVMDVGSGGDGQSELPAEDPFNFYGASLLSKGSFSKGRLLIDPNCSGHSPRTARHAPAVRKFSPDLKLLKDVKISVSFTESCRSKDRKVLYTGAERDVRAECGLLLSPVSGDVHACPFGGSVGDGVGIGGESADKKDEENELDQEKRVEYAVLDELEDFTDNLELDEEGAGGFTAKAIVQRDRVDEEALNFPYEDDFDNDVDALLEEGLCAPKKRRTEEKYGGDSDHPSDGETSVQPMMTKIKTVLKSRGRPPTEPLPDGWIMTFHNSGVPVYLHRESRVVTWSRPYFLGTGSIRKHDPPLSSIPCLHYKKMKDNEEREQSSDLTPSGDVSPVKPLSRSAELEFPLDEPDSMGADPGPPDEKDPLGAEAAPGALGQVKAKVEVCKDESVDLEEFRSYLEKRFDFEQVTVKKFRTWAERRQFNREMKRKQAESERPILPANQKLITLSVQDAPTKKEFVINPNGKSEVCILHEYMQRVLKVRPVYNFFECENPSEPFGASVTIDGVTYGSGTASSKKLAKNKAARATLEILIPDFVKQTSEEKPKDSEELEYFNHISIEDSRVYELTSKAGLLSPYQILHECLKRNHGMGDTSIKFEVVPGKNQKSEYVMACGKHTVRGWCKNKRVGKQLASQKILQLLHPHVKNWGSLLRMYGRESSKMVKQETSDKSVIELQQYAKKNKPNLHILSKLQEEMKRLAEEREETRKKPKMSIVASAQPGGEPLCTVDV
modifications: SNAP-surface Alexa fluor 546 or SNAP-surface Alexa fluor 647 on the SNAP tag
On to B1, for which the results for the “stoichiometry N” value in series [1] and in series [2] were 2 DGCR8 per complex and 2 DGCR8 per Drosha, respectively.

B2: FLAG-SNAP-DGCR8 (natural protein)
chain: METDESPSPLPCGPAGEAVMESRARPFQALPREQSPPPPLQTSSGAEVMDVGSGGDGQSELPAEDPFNFYGASLLSKGSFSKGRLLIDPNCSGHSPRTARHAPAVRKFSPDLKLLKDVKISVSFTESCRSKDRKVLYTGAERDVRAECGLLLSPVSGDVHACPFGGSVGDGVGIGGESADKKDEENELDQEKRVEYAVLDELEDFTDNLELDEEGAGGFTAKAIVQRDRVDEEALNFPYEDDFDNDVDALLEEGLCAPKKRRTEEKYGGDSDHPSDGETSVQPMMTKIKTVLKSRGRPPTEPLPDGWIMTFHNSGVPVYLHRESRVVTWSRPYFLGTGSIRKHDPPLSSIPCLHYKKMKDNEEREQSSDLTPSGDVSPVKPLSRSAELEFPLDEPDSMGADPGPPDEKDPLGAEAAPGALGQVKAKVEVCKDESVDLEEFRSYLEKRFDFEQVTVKKFRTWAERRQFNREMKRKQAESERPILPANQKLITLSVQDAPTKKEFVINPNGKSEVCILHEYMQRVLKVRPVYNFFECENPSEPFGASVTIDGVTYGSGTASSKKLAKNKAARATLEILIPDFVKQTSEEKPKDSEELEYFNHISIEDSRVYELTSKAGLLSPYQILHECLKRNHGMGDTSIKFEVVPGKNQKSEYVMACGKHTVRGWCKNKRVGKQLASQKILQLLHPHVKNWGSLLRMYGRESSKMVKQETSDKSVIELQQYAKKNKPNLHILSKLQEEMKRLAEEREETRKKPKMSIVASAQPGGEPLCTVDV
modifications: SNAP-surface 546 Alexa fluorophore on the SNAP tag in a portion of the sample
Consider B2, for which, in series [3], the “stoichiometry N” value came out at 2 SNAP-DGCR8 per complex.

Usually stoichiometry N stands for a count of units in the complex or per binding partner.
